# In patent publication US5534631, “Cellular factor ILF” (Board of Regents, The University of Texas System):
# What was measured:
# [1] = target: T1, GST/ILF fusion (Example 3) (Homo sapiens, UniProt Q01167 SEQ:1-540); assay: competition; 1-, 5-, 20-fold excess against IL-2 NFAT probe; conditions: tags: N-terminal GST (pGEX-3X)
# [2] = target: T2, beta-galactosidase/ILF fusion (Homo sapiens, UniProt Q01167 SEQ:138-372); assay: competition; up to 50-fold excess; conditions: tags: N-terminal beta-galactosidase (lambda gt11)
# [3] = target: T1, GST/ILF fusion (Example 3); assay: competition; no significant competition (also SEQ 27); conditions: tags: N-terminal GST (pGEX-3X)
# [4] = target: T3, glutathione S-transferase (UniProt P08515 P08515:1-218); assay: EMSA; control; conditions: tags: pGEX-3X (Pharmacia), chain copies: 2, label: 32P (when probe)
# Description: (§1) The constructs tested included a deletion of the amino terminus of ILF, a deletion of both the amino and carboxyl termini of ILF, or a deletion of the fork head domain in addition to the amino and carboxyl termini of ILF. Oligonucleotides corresponding to the distal ILF site in the HIV-LTR, the NFAT site in the IL-2 promoter, and an HIV-LTR fragment containing the distal ILF site were used in gel retardation analysis.
# (§2) Figure 5C: FIG. 5. Gel retardation analysis of glutathione S-transferase/ILF fusions. Gel retardation analysis was performed with either ILF oligonucleotides (A), a fragment extending from −310 and −255 in the HIV-LTR (B), or NFAT oligonucleotides (C) and 4 μg of each of the glutathione S-transferase/ILF fusions. Lane 0, probe alone; lane 1, glutathione S-transferase (GST) protein alone; lane 2, a deletion of both the amino and carboxyl-termini in the GST/ILF fusion (ΔILF3); lane 3, a deletion of the ILF fork head DNA binding domain in addition to the amino and carboxyl termini in the GST/ILF fusion (ΔILF2); lane 4, an amino-terminal deletion of ILF in the GST/ILF fusion (ΔILF1).
# [5] = target: T4, GST/ILF delta1 (amino-terminal deletion) (Homo sapiens, UniProt Q01167 SEQ:97-540); assay: EMSA; 4 ug protein; conditions: tags: N-terminal GST (pGEX-3X); label: 32P (when probe)
# Description: as §1, §2
# [6] = target: T5, GST/ILF amino and carboxyl deletion, fork head retained (Homo sapiens, UniProt Q01167 SEQ:97-367); assay: EMSA; 4 ug protein; conditions: tags: N-terminal GST (pGEX-3X); label: 32P (when probe)
# Description: as §1, §2
# [7] = target: T6, GST/ILF amino, carboxyl and fork head deletion (Homo sapiens, UniProt Q01167 SEQ:97-186); assay: EMSA; fork head deleted; conditions: tags: N-terminal GST (pGEX-3X); label: 32P (when probe)
# Description: as §1, §2
# [8] = target: T1, GST/ILF fusion (Example 3); assay: EMSA; self-competition observed; conditions: tags: N-terminal GST (pGEX-3X); label: 32P (when probe)
# Experimental: Gel retardation of ILF with the IL-2 NFAT motif. (A) Oligonucleotides corresponding to the NFAT motif in the IL-2 promoter extending from −285 to −254 were end labeled with γP^32ATP and used in gel retardation analysis alone (lane 0), with glutathione-S-transferase (lane 1), or with a glutathione-S-transferase/ILF fusion protein (lanes 2–16). The specificity of binding was tested by competition with unlabeled oligonucleotides corresponding to the NFAT motif in the IL-2 promoter (lanes 2–4), sequences spanning −283 to −256 and −223 to −195 in the HIV-LTR which comprised distal (lanes 5–7) and proximal (lanes 8–10) NFAT motifs respectively, the hepatocyte nuclear factor HNF-3A binding site extending from −107 to −92 in the transthyretin promoter (lanes 11–13), and an AP-1 binding sequence extending from −103 to −83 in the early region 3 promoter (lanes 14–16). The unlabeled oligonucleotides were present in either an equimolar (lanes 2, 5, 8, 11, and 14), 5-fold (lanes 3, 6, 9, 12, and 15) or 20-fold (lanes 4, 7, 10, 13 and 16) molar excess of the labeled oligonucleotides. (B) Sequences of NFAT motifs in the IL-2 promoter and the distal and proximal regions of the HIV-LTR are shown.
# Two complexes I and II were noted; the major complex (I) was due to full-length GST/ILF while the lower complex (II) was due to GST/ILF degradation products. […]
# [9] = target: T2, beta-galactosidase/ILF fusion; assay: competition; complete competition; conditions: tags: N-terminal beta-galactosidase (lambda gt11)
# [10] = target: T6, GST/ILF amino, carboxyl and fork head …; assay: EMSA; stated similar with proximal site; conditions: tags: N-terminal GST (pGEX-3X)
# [11] = target: T4, GST/ILF delta1 (amino-terminal deletion); assay: EMSA; stated similar binding with proximal site; conditions: tags: N-terminal GST (pGEX-3X)
# [12] = target: T5, GST/ILF amino and carboxyl deletion, …; assay: EMSA; stated similar binding with proximal site; conditions: tags: N-terminal GST (pGEX-3X)
# [13] = target: T2, beta-galactosidase/ILF fusion; assay: competition; up to 50-fold excess; conditions: tags: N-terminal beta-galactosidase (lambda gt11); remark: listed apart in the source
# Experimental: Figure 2: FIG. 2. Gel retardation analysis with β-galactosidase/ILF fusion protein. An HIV-LTR fragment extending from −310 to −255 was used in gel retardations with either β-galactosidase or β-galactosidase/ILF purified with anti-β-galactosidase sepharose chromatography. Lane 1, probe alone; lane 2, probe with 3 μg of β-galactosidase extract; lane 3, probe with 3 μg of β-galactosidase/ILF extract. Competition analysis with either a 10-fold (lanes 4, 6, 8, 10) or 50-fold (lanes 5, 7, 9, 11) molar excess of unlabeled oligonucleotides corresponding to ILF (lanes 4 and 5), NFAT (lanes 6 and 7), AP1 (lanes 8 and 9) and CREB (lanes 10 and 11) binding motifs are shown. Figure 3B: FIG. 3. Amino acid sequence of the ILF coding region. (A) A 543 amino acid open reading frame encoded by a portion of the ILF cDNA. The shaded region indicates the region of homology of ILF with the fork head and HNF-3A DNA binding domains. The circled region (GAGSSG) SEQ ID NO:12 contains homology with a nucleotide binding sequence, the boxed region (RKRRPR) SEQ ID NO:13 contains a potential nuclear localization signal, the underlined sequence (RTPLGPLSS) SEQ ID NO:14 is homologous to a region required for ubiquitin-mediated degradation, and the dotted line (NGT) indicates a potential N-glycosylation site. (B) The 3.0 kb ILF cDNA and the position of the 1629 bp open reading frame. […]
# [14] = target: T4, GST/ILF delta1 (amino-terminal deletion); assay: EMSA; 4 ug protein; conditions: tags: N-terminal GST (pGEX-3X)
# [15] = target: T6, GST/ILF amino, carboxyl and fork head …; assay: EMSA; fork head deleted; construct naming differs between legend and methods; conditions: tags: N-terminal GST (pGEX-3X)
# [16] = target: T5, GST/ILF amino and carboxyl deletion, …; assay: EMSA; construct naming (delta2/delta3) differs between legend and methods; conditions: tags: N-terminal GST (pGEX-3X)
# [17] = target: T3, glutathione S-transferase; assay: EMSA; control; conditions: tags: pGEX-3X (Pharmacia), chain copies: 2
# [18] = target: T2, beta-galactosidase/ILF fusion; assay: competition; competes with HIV-LTR probe at 10- or 50-fold excess; conditions: tags: N-terminal beta-galactosidase (lambda gt11)
# T5 sequence (Q01167 217-487, stated change not applied): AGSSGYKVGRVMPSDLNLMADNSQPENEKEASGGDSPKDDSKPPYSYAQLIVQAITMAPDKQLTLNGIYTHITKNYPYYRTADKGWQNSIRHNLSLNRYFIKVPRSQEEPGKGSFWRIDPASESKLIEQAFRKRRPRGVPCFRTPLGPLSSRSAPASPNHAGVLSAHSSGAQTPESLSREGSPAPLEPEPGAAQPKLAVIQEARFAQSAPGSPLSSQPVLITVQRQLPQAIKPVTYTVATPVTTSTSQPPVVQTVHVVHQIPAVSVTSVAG
# T2 sequence (Q01167 258-492): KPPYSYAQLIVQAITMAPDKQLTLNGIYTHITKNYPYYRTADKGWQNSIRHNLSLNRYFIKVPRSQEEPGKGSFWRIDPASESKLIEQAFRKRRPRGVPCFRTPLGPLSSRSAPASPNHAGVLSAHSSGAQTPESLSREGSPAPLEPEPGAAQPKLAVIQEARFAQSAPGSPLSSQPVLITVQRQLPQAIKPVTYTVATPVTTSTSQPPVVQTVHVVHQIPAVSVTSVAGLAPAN
# T4 sequence (Q01167 217-660, stated change not applied): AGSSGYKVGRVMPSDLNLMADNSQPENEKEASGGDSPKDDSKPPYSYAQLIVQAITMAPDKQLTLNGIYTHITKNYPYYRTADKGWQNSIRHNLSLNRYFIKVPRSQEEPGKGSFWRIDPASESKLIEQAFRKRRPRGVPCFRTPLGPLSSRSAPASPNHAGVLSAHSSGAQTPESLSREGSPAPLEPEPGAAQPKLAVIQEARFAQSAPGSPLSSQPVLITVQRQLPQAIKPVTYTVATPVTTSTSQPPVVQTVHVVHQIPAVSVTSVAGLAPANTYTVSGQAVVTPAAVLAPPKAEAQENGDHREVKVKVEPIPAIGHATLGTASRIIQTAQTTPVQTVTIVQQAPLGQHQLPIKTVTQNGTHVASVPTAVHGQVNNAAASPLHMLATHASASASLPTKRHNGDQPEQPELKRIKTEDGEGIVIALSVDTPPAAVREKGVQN
# T6 sequence (Q01167 217-306, stated change not applied): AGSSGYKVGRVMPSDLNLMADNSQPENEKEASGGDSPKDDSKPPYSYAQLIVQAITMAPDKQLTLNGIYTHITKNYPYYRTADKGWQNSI
# T1 sequence (Q01167 121-660): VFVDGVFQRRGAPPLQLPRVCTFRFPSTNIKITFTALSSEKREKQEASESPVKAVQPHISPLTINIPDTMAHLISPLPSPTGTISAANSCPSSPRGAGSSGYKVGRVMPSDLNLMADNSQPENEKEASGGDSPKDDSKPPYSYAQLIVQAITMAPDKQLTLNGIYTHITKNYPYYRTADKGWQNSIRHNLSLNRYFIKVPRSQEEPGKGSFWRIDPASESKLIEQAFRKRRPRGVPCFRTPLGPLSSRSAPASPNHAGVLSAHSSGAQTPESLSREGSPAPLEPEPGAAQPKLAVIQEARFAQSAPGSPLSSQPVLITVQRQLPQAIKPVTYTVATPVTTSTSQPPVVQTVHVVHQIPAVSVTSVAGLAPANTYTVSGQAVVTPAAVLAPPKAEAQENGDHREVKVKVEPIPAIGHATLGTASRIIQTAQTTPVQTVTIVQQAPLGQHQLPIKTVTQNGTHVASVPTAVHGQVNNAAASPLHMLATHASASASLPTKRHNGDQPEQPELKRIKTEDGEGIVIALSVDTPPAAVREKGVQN
# T3 sequence (P08515 whole entry, the tested form may be a part, one chain of several): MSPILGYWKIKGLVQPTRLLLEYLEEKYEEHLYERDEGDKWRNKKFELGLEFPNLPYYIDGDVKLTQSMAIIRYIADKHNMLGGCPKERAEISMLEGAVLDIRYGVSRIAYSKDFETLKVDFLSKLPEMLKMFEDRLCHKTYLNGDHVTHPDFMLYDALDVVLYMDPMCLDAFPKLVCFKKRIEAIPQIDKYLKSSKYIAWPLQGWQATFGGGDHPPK
binder,measurement,setting,value
HIV-1 distal NFAT site (Example 3) (dsDNA) DNA 1: GAAGAGGCCAATGAAGGAGAGAACAACA DNA 2: TGTTGTTCTCTCCTTCATTGGCCTCTTC,binding result,[1],binds
"AP1 site, adenovirus E3 promoter (-103 to -83) (dsDNA) DNA 1: GAAGTTCAGATGACTAACTCA DNA 2: TGAGTTAGTCATCTGAACTTC",binding result,[2],no binding
same,binding result,[3],no binding
IL-2 promoter NFAT motif (-285 to -254) (dsDNA) DNA 1: AATTGGAGGAAAAACTGTTTCATACAGAAGGCGT DNA 2: ACGCCTTCTGTATGAAACAGTTTTTCCTCCAATT,binding result,[4],no binding
same,binding result,[5],binds
same,binding result,[6],binds
same,binding result,[7],no binding
same,binding result,[8],binds
HIV-1 LTR proximal ILF motif (-223 to -195) (dsDNA) DNA 1: GAGGACGCGGAGAAAGAAGTGTTAGTGTG DNA 2: CACACTAACACTTCTTTCTCCGCGTCCTC,binding result,[9],binds
same,binding result,[10],no binding
same,binding result,[11],binds
same,binding result,[12],binds
HIV-1 proximal NFAT site (Example 3) (dsDNA) DNA 1: GAGGACGCGGAGAAAGAAGTGTTAAGTGTG DNA 2: CACACTTAACACTTCTTTCTCCGCGTCCTC,binding result,[1],binds
"CREB/ATF site, somatostatin promoter (-60 to -33) (dsDNA) DNA 1: GGTTCCTCCTTGGCTGACGTCAGAGAGAGA DNA 2: TCTCTCTCTGACGTCAGCCAAGGAGGAACC",binding result,[13],no binding
HIV-1 LTR distal ILF motif (-283 to -256) (dsDNA) DNA 1: GAAGAGGCCAATGAAGGAGAGAACAACA DNA 2: TGTTGTTCTCTCCTTCATTGGCCTCTTC,binding result,[14],binds
same,binding result,[15],no binding
same,binding result,[16],binds
same,binding result,[17],no binding
same,binding result,[18],binds
